Measurements: publication PMC4678854
Where a chain is given by its changes, count along the chain named.

Key:
Test in all cases: EMSA
TnsE E522K+D523N = target: T1, TnsE E522K+D523N (Escherichia coli (transposon Tn7), UniProt P05845 1-538, E522K;D523N)
T1 sequence: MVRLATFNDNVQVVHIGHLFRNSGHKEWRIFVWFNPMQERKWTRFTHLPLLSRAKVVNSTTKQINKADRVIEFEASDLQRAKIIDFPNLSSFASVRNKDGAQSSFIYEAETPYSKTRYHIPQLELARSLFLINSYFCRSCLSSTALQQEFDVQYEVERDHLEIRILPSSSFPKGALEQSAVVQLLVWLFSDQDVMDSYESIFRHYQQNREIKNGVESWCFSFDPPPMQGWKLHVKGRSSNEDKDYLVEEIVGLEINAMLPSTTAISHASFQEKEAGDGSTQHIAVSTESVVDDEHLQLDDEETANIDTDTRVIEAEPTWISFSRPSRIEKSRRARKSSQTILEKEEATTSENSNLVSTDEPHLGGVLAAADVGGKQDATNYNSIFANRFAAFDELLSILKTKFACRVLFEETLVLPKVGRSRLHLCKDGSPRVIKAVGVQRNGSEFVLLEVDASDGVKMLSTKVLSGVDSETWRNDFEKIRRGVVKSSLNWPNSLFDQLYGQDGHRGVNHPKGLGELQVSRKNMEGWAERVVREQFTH

TnsE G515R = target: T2, TnsE G515R (Escherichia coli (transposon Tn7), UniProt P05845 1-538, G515R)
T2 sequence: T1 sequence with G515R, K522E, N523D

TnsE G483R = target: T3, TnsE G483R (Escherichia coli (transposon Tn7), UniProt P05845 1-538, G483R)
T3 sequence: T1 sequence with G483R, K522E, N523D

TnsE E516K = target: T4, TnsE E516K (Escherichia coli (transposon Tn7), UniProt P05845 1-538, E516K)
T4 sequence: T1 sequence with E516K, K522E, N523D

TnsE A453V = target: T5, TnsE A453V (Escherichia coli (transposon Tn7), UniProt P05845 1-538, A453V)
T5 sequence: T1 sequence with A453V, K522E, N523D

TnsE D523N = target: T6, TnsE D523N (Escherichia coli (transposon Tn7), UniProt P05845 1-538, D523N)
T6 sequence: T1 sequence with K522E

TnsE E522K = target: T7, TnsE E522K (Escherichia coli (transposon Tn7), UniProt P05845 1-538, E522K)
T7 sequence: T1 sequence with N523D

TnsE wild-type = target: T8, TnsE wild-type (Escherichia coli (transposon Tn7), UniProt P05845 1-538)
T8 sequence: T1 sequence with K522E, N523D

Measured: binding result

B1: 3' recessed-end DNA substrate (mixed)
DNA 1: CCATTAGCAAGGCCGGAAACGTCACCAATGCAACGATCAGCCAACTAAACTAGGACATCTTTGCC
DNA 2: GGCAAAGATGTCCTAGTTTAGTTGGCTGAT
binds: all assays above
